Measurements published in the RNAGym collection of RNA variant scans (doi:10.1073/pnas.2313332121).

B1: TPR t1 (parent)
chain: GACCAAUCUGCCCUCAGAGCUCGAGAACAUCUUCGGAUGCAGAGGAGGCAGGCUUCGGUGGCGCGAUAGCGCCAACGUCCUCAACCUCCAAUGCAUCCCACCACAUGAUGAUGCCUGAAGAGCCUUGGUUUUUUG

Variants of: B1
Test: polymerase ribozyme fitness, log enrichment relative to wild type (log ratio); higher = more active; in vitro selection for triplet polymerase activity
Procedure, shortened: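 Fitness is a logarithmic measure of how a genotype enriched relative to the wild type, with replicate averages weighted by inverse variance. The logarithm uses base 2, and enrichment came from Illumina sequencing of input and output libraries. Those libraries were PCR-built, transcribed mutants of each subunit of a heterodimeric triplet polymerase ribozyme, passed through one triplicate in vitro selection round that included frozen incubation at −7 °C, gel excision of extended constructs and streptavidin-bead capture. Genotypes were kept only if they had ≥10 input reads and ≥1 read per output.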

In order of falling “polymerase ribozyme fitness (log ratio)” value:
1. GACCCAUCUGUCCUCAGAGCUCGAGAACAUCUUCGGAUGCAGAGGAGGCAGGCUUCGGUGGCGCGAUAGCGCCAACGUCCUCAACCUCCAAUGCAUCCCACCACAUGAUGAUGCCUGAAGAACCUUGGUUUUUUG  0.875
2. GACCCAUCUGCGCUCAGAGCUCGAGAACAUCUUCGGAUGCAGAGGAGGAAGGCUUCGGUGGCGCGAUAGCGCCAACGUCCUCCACCUCCAAUGCAUCCCACCACAUGAUGAUGCCUGAAGAGCCUUGGUUUUUUG  -0.122
3. GACCCAUCUGCACUCAGAGCUCGAGAACAUCUUCGGAUGCAGAGGAGGCAGGCUUCGGUGGCGCGAUAGCGCCAACGUCCUCAACCUCCAAUGCAUCCCACCACAUGAUGAUGCCUGAAGAGCCUUGGUUUUUUG  -0.824
4. GACCCAUCUGCCUUCAGAGCUCGAGAACAUCUUCGGAUGCAGAGGAGGCAGGCUUCGGUUGCGCGAUAGCGCCAACGUCCUCAACCUCCAAUGCAUCCCACCACAUGAUGAUGCCUGAAGAGCCUUGGUUUUUUG  -0.844
5. GACCCAUCUGCACUCAGAGCUCGAGAACAUCUUCGGAUGCAGAGGAGGCAGGCUUCGGUGGCGCGAUAGCGCUAACGUCCUCAACCUCCAAUGCAUCCCACCACAUGAUGAUGCCUGAAGAGCCUUGGUUUUUUG  -0.891
6. GACCCAUCUGCCCUCAGAGCUCGAGAACAUCUUCGGAUGCAGAGGAGGCAGGGUUCGGUGGCGCGAUAGCGCCAACGUCCUCAACCUCCAAUGCAACCCACCACAUGAUGAUGCCUGAAGAGUCUUGGUUUUUUG  -0.893
7. GACCCAUCUGGCCUCAGAGCUCGAGAACAUCUUCGUAUGCAGAAGAGGCAGGCUUAGGUGGCGCGAUAGCGCCAACGUCCUCAACCUCCAAUGCAUCCCACCACAUGAUGAAGCCUGAAGAGCCUUGGUUUUUUG  -1.22
8. GACCCAUCUGCGCUCAGAGCUCGAGAACAUCUUCGGAUGCAGAGGAGGAAGGCUUAGGUGGCGCGAUAGCGCCAACGUCCUCCACCUCCAAUGCAUCCCACCACAUGAUGAUGCCUGAAGAGCCUUGGUUUUUUG  -1.46
9. GACCCAUCUGCCCUCAGAGCUCGAGAACAUCUUCGGAUGCAGAGGAGGCAGGCUUGGGUGGCGCGAUAGCGCCAACGUCCUCAACCUCCAAUGCAUCCCACCACAUGAUGAUGCCUGAAGAGCCUUGGUUUUUUG  -1.73
10. GACCCAUCUGGCCUCAGAGCUCGAGAACAUCUUCGGAUGCAGAGGAGGCAGGCUUCGGUGGCGCGAUAGCGCCAACGUUCUCAACCUCCAAUGCAUCCCACCACAUGAUGAUGCCUCAAGAGCCUUGGUUUUUUG  -1.88
11. GACCCAUCUGCCCUCAGAGCUCGAGAACAUCUUCGGAUGCAGAGGAGGCAGGCUUAGGUGGCGCGAUAGCGCCAACGUCAUCAACCUCCAAUGCAUCCCACCACAUGAUGAUGCCUGAAGAGCCUUGGUUUUUUG  -3.29
12. GACCCAUCUGUCCUCAGAGCUCGAGAACAUCUUCGGAUGCAGUGGAGGCAGGCUUCGGCAGCGCGAUAGCGCCAACGUCCUCAACCUCCAAUGCAUCCCACCACAUGAUGAUGCCUGAAGAGCCUUGGUUUUUUG  -4.12
13. GACCCAUCUGCACUCAGAGCUCGAGAUCAUCUUCGGAUGCAGAGGAGGCAGGCUUCGGUGGCGCGAUAGCGCCAACGUCCUCAACCUCCAAUGCAUCCCACCACAUGAUGAUGCCUGAAGAGCCUUGGUUUUUUG  -4.25
14. GACCCAUCUGCCCUCAGAGCUUGAGAACAUCUUCGGAUGCAGAGGAGGCAGGCUUCGGUGGCGCGAUAGCGCCAACGUCCUCAACCUCAAAUGCAUCCCACCACAUGAUGAUGCCUGAAGGGCCUUGGUUUUUUG  -4.41
15. GACCCAUCUGCCCUCAGAGCUGGAGAACAUCUUCGGAUGCAGAGGAGGCAGGCUUGGGUGGCGCGAUAGCGCCAACGUCCUCAACCUCCAAUGCAUCCCACCACAUGAUGAUGCCUGAAGAGUCUUGGUUUUUUG  -4.43
16. GACCCAUCUGUCCUCAGAGCUCGAGAACAUCUUCGGAUGUAGAGGAGUCAGGCUUCGGUUGCGCGAUAGCGCCAACGUCCUCAACCACCAAUGCAUCCCACCACAUGAUGCUGCCUGAAGAGCCUUGGUUUUUUG  -4.98
17. GACCCAUCUGCGCUCAGAGCUCGAGAACAUCUUCGGAUGCAGAGGAGGCAGGCUUCGGUGGCGCGAUAGCGCCAACGUCCUCAACCUCCAAUGCAUCCCACCACAUGAUGAUGGCUGAAGAGCCUUGGUUUUUUG  -5.39
18. GACCCAUCUGCCCUCAGAGCUCGAGAACAUCUUAGGAUGCACAGGAGGCAGGCUUCGGUGGCGCGAUAGCGCCAACGUCCUCAACCUUCAAUGCAUCCCACCACAUGAUGAUGCCUGAAGAGCCUUGGUUUUUUG  -5.7
19. GACCCAUCUGCCCUCAGAGCUCGAGAACAUCUUCGGAUGUAGAGGAGGCAGGCUUCGGUGGCGCGACAGCGCCAACGUCCUCAACCUCCAAUGCAUCCCACCAGAUGAUGAUGCCUGAAGAGGCUUGAUUUUUUG  -6.57
20. GACCCAUCUGACCUCAGAGCUCGAGAACAUCUUCGGAUGCAGAGGAGGCGGGAUUCGGUGGCGCGAUAGCGCCAACGUCCUCAACCUCCAAUGCAUCCAACGAAAUGAUGAUGCUUGAAGAGCCUUGGUUUUUUG  -7.15
21. GACCCAUCUGCCCUCAGAGCUCGAGAACAUCUUCGGAUGAAGAGGAGGCAGGCUUCGGUGGCGUGAUAGCGCCAACGUCCUCAACCUCUAAUGCAUCCCACUACAAGAUGAUGCCUGAAGAGCCUUGGUUUUUUG  -7.21
